Residue numbers refer to the chain shown, from its start. Names may count otherwise.

What all share (format): cell-based
Assay [1] concerns membrane lipid composition of cells. The assay is described as follows: Lipidomics profiling of cells overexpressing CD95 variants (membrane lipid composition, UMAP clustering). Particulars: overexpressed using lentiviral vectors two weeks prior to lipidomics profiling. The source says: (§1) FIG. 5: Changes of lipid composition of membranes of cells in the presence of CD95 variants. A) Shown are average mol % concentrations of the indicated lipid classes; Abbreviations: WT: wildtype CD95; KO: CD95-knockout; sM: single mutant (R171E), dM: double mutant (R192E/K193E); tM: triple mutant (R171E/R192E/K193E); PC: phosphatidylcholines; PE: phosphatidylethanolamines, PS: phosphatidylserines, PI: phosphatidylinositoles, SM: sphingomyelins, CE: cholesteryl esters. “a”X relates to acyl-X, e.g. aPC is Acyl-phosphatidylcholines; “e”X relates to Ether-X or X containing one odd-chain fatty acyl species. B) Clustering of cells based on lipid profile changes, UMAP representation. C) average cell size as cell area of cells expressing variants of CD95.
(§2) Indicated variants were overexpressed using lentiviral vectors two weeks prior to lipidomics profiling. […] Also, average cell size was decreased in cells expressing the triple mutant CD95, very similar to CD95 KO cells.

In the next assay the test system is cell cycle. The assay is described as follows: Cell cycle assessment of cells overexpressing CD95 variants. The conditions noted are these: overexpressed using lentiviral vectors two weeks prior to cell cycle assessment. The source says: FIG. 6: Effect of CD95 variants on cell cycle. Shown is the percentage of cells in G2, S, or G1 phase, respectively, in cell overexpressing effector polypeptides. […] Abbreviations as in FIG. 5.
Indicated variants were overexpressed using lentiviral vectors two weeks prior to cell cycle assessment.

For the next assay, the system named is transferrin uptake. The assay is described as follows: Transferrin uptake assay (endocytotic activity), flow cytometry. Particulars: lentiviral overexpression two weeks prior, uptake after 10, 20 and 30 min. How it is done:
FIG. 8: Effect of CD95 variants on endocytotic activity of cells. Shown is the relative transferrin uptake of treated cells over time, i.e. after 10, 20, and 30 min. Abbreviations as in FIG. 5.
Indicated variants were overexpressed using lentiviral vectors two weeks prior to assessment of the endocytotic activity by a transferrin uptake assay. Transferrin uptake was assessed after the indicated time points via flow cytometry.
(In flow cytometry, cells or beads pass a laser one at a time.)

The test system of another assay is Caspase 8 cleavage. The assay is described as follows: Caspase-8 cleavage in protein lysates of T98G cells (apoptosis). The conditions noted are these: upon EGFR stimulation. The protocol: FIG. 11: Impact of CD95 mutants on apoptosis (caspase-8 cleavage). Protein lysates were analysed for the level of cleaved and total caspase-8. […] Bar show, in each case from left to right, relative expression of total caspase, p44, p43, and p18.
(§3) T98G cells were serum starved, control (Co) cells were left untreated otherwise stimulated with 100 ng/ml of EGF-L for 10 mins. Protein samples were analysed by western blot for pAKT (ser 473), pEGFR and pERK and the total amount of protein (pan antibody). Relative expression of the protein was calculated where phospho-proteins were normalized to their total proteins. […] TMD is CD95 with the indicated mutation(s). Protein lysates were also analysed for the level of cleaved and total caspase (FIG. 11).

Assay [2] relates to Akt phosphorylation (Ser 473). Briefly: Western blot, fraction of phosphorylated Akt in cells overexpressing CD95 variants (Example 8). Particulars: lentiviral overexpression two weeks prior, untreated or 20 ng/ml CD95-ligand or 100 ng/ml EGF-L for 10 minutes. How it is done:
(§4) FIG. 7: Effect of CD95 variants on cell signaling; shown is relative content in pAkt and pEGFR in cells transfected to overexpress effector polypeptides as indicated. Abbreviations as in FIG. 5.
(§5) Indicated variants were overexpressed using lentiviral vectors two weeks prior to treatment. Cells were left untreated (co) or exposed to 20 ng/ml of CD95-ligand or 100 ng/ml of EGF-L for 10 minutes and the fraction phosphorylation among total Akt and EGFR measured by Western Blot.
Background: A western blot detects proteins with antibodies after separation by electrophoresis.

For a further assay, the system named is cell size. Briefly: Average cell size as cell area of cells expressing CD95 variants. Particulars: lentiviral overexpression, very similar to CD95 KO cells.
Source text: as §1, §2

For a further assay, the system named is EGFR phosphorylation. The assay is described as follows: Western blot, fraction of phosphorylated EGFR in cells overexpressing CD95 variants (Example 8). The conditions noted are these: lentiviral overexpression two weeks prior, untreated or 20 ng/ml CD95-ligand or 100 ng/ml EGF-L for 10 minutes. The protocol: as §4, §5
The subject of another assay is AKT activation. Briefly: Western blot pAKT (ser 473) relative to total Akt in T98G cells (Example 11). Particulars: T98G cells serum starved, untreated or 100 ng/ml EGF-L for 10 mins. The protocol: (§6) FIG. 10: Impact of CD95 mutants on activation of Akt and EGFR. […] Abbreviations as in FIG. 5.
as §3

For another assay, the system named is EGFR activation. The assay is described as follows: Western blot pEGFR relative to total EGFR in T98G cells (Example 11). The conditions noted are these: T98G cells serum starved, untreated or 100 ng/ml EGF-L for 10 mins. The protocol:
as §6, §3

B1: double mutant: CD95 variant with R192E/K193E exchanges (cf. SEQ ID NO:31), expressed from lentiviral or AAV vector (protein)
chain: MLGIWTLLPLVLTSVARLSSKSVNAQVTDINSKGLELRKTVTTVETQNLEGLHHDGQFCHKPCPPGERKARDCTVNGDEPDCVPCQEGKEYTDKAHFSSKCRRCRLCDEGHGLEVEINCTRTQNTKCRCKPNFFCNSTVCEHCDPCTKCEHGIIKECTLTSNTKCKEEGSQSNLGWLCLLLLPIPLIVWVKEEEVQKTCRKHRKENQGSHESPTLNPETVAINLSDVDLSKYITTIAGVMTLSQVKGFVRKNGVNEAKIDEIKNDNVQDTAEQVQLLRNWHQLHGKKEAYDTLIKDLKKANLCTLAEKIQTIILKDITSDSENSNFRNEIQSLV
modifications: R192E/K193E double mutein (dM)
B1: in assay [1], the “changes in membrane lipid composition” value is “distinct changes in membrane lipid composition” and the “clustering of cells based on lipid profile changes (UMAP)” value is reported as “clustered similarly”. The “effect on cell cycle (cells in G2, S or G1 phase)” value (“effect on cell cycle” for short) in the assay on cell cycle was “G1 arrest”. Further, the “effect on cell cycle” value with cell cycle (listed as double mutation variant) was “strong G1 arrest”.

B2: triple mutant: CD95 variant with R171E/R192E/K193E exchanges (cf. SEQ ID NO:32), expressed from lentiviral or AAV vector (protein)
chain: B1 chain with Q171E
modifications: R171E/R192E/K193E triple mutein (tM)
Take B2: the transferrin uptake result in the assay on transferrin uptake is “significantly reduced transferrin uptake”. In addition, the “Caspase 8 cleavage” value in the assay with Caspase 8 cleavage is reported as “noticeable Caspase 8 cleavage”. Further, the “changes in membrane lipid composition” value in [1] is on record as “distinct changes in membrane lipid composition”. Besides, the “clustering of cells based on lipid profile changes (UMAP)” value in assay [1] is given as “very similar clustering to the KO cells”. Moreover, the “Akt phosphorylation (Ser 473), fraction among total Akt” value in assay [2] is reported as “reduced Akt phosphorylation”. For the same molecule, the “effect on cell cycle” value in the assay with cell cycle was “G1 arrest”; in the assay on cell cycle (listed as triple mutation variant), “strong G1 arrest”. The average cell size entry in the assay on cell size is listed as “decreased”. In addition, the “EGFR phosphorylation, fraction among total EGFR” value in the assay with EGFR phosphorylation is reported as “increased EGFR phosphorylation”. Further, the “level of AKT activation (pAKT ser 473 normalized to total)” value in the assay on AKT activation was “decrease in the level of AKT activation”. In the assay with EGFR activation, the “EGFR activation (pEGFR normalized to total)” value is “increase in the EGFR activation”.

B3: single mutant: CD95 variant with R171E exchange (cf. SEQ ID NO:30), expressed from lentiviral or AAV vector (protein)
chain: B1 chain with Q171E, E192R, E193K
modifications: R171E single mutein (sM)
For B3, in the assay on transferrin uptake, the transferrin uptake entry is listed as “significantly reduced transferrin uptake”. In addition, the “clustering of cells based on lipid profile changes (UMAP)” value in [1] is recorded as “clustered similarly”.

The values are drawn from US20250136662A1, “CD95 POLYPEPTIDES” (Deutsches Krebsforschungszentrum Stiftung des öffentlichen …, priority 2021, published 2025).
